The target of one experiment is HLA-A*31:01. In words: IEDB peptide-MHC binding, purified MHC/direct/fluorescence; filed as Kd, often an IC50 or EC50 that approximates it; ≥ and ≤ were set here for values at or beyond the usual limits of such assays.
The target of a further experiment is HLA-A*01:01. The description is as above.
The target of another experiment is HLA-A*02:01. The experiment is described as above.
The next experiment has as its target HLA-B*08:01. Described as above.
A further experiment deals with HLA-B*46:01. The experiment is described as above.
For another experiment, the target named is HLA-A*69:01. Described as above.
Another experiment addresses HLA-A*03:01. Described as above.
A further experiment addresses HLA-B*07:02. The description is as above.
The next experiment deals with HLA-B*40:01. The description is as above.
Another experiment concerns the target HLA-B*15:01. The experiment is described as above.
The target of a further experiment is HLA-B*15:02. Described as above.
Another experiment concerns the target HLA-A*26:01. Described as above.
The target in another experiment is HLA-A*11:01. The experiment is described as above.
Experiment [1] has as its target HLA-B*58:01. The description is as above.
For another experiment, the target named is HLA-B*44:02. Described as above.
The target in another experiment is HLA-B*35:01. Described as above.
The target in another experiment is HLA-B*48:01. In words: IEDB peptide-MHC binding, purified MHC/competitive/fluorescence; filed as Kd, often an IC50 or EC50 that approximates it; ≥ and ≤ were set here for values at or beyond the usual limits of such assays.
The next experiment deals with HLA-B*27:05. In words: IEDB peptide-MHC binding, purified MHC/direct/fluorescence; filed as Kd, often an IC50 or EC50 that approximates it; ≥ and ≤ were set here for values at or beyond the usual limits of such assays.
Another experiment deals with HLA-B*45:06. In words: IEDB peptide-MHC binding, purified MHC/competitive/fluorescence; filed as Kd, often an IC50 or EC50 that approximates it; ≥ and ≤ were set here for values at or beyond the usual limits of such assays.
A further experiment deals with HLA-B*40:13. Described as above.
The target of a further experiment is HLA-A*32:15. Described as above.
Another experiment concerns the target HLA-B*15:42. Described as above.
In the next experiment the target is HLA-B*83:01. The experiment is described as above.
For another experiment, the target named is HLA-A*32:07. The description is as above.
Experiment [2] has as its target HLA-C*14:02. In words: IEDB peptide-MHC binding, purified MHC/direct/fluorescence; filed as Kd, often an IC50 or EC50 that approximates it; ≥ and ≤ were set here for values at or beyond the usual limits of such assays. Particulars: source organism: Entamoeba histolytica HM-1:IMSS.
In a further experiment the target is HLA-C*06:02. Described as above. Particulars: source organism: Entamoeba histolytica HM-1:IMSS.
The target in the next experiment is HLA-C*15:02. Described as above. Particulars: source organism: Entamoeba histolytica HM-1:IMSS.
Another experiment addresses HLA-A*02:11. The experiment is described as above. Particulars: source organism: Influenza A virus(A/swine/Shandong/fNY/2003(H9N2)).
For another experiment, the target named is HLA-A*02:19. The experiment is described as above. The settings on record: source organism: Influenza A virus(A/swine/Shandong/fNY/2003(H9N2)).
Another experiment deals with HLA-A*24:02. The description is as above. The settings on record: source organism: Influenza A virus (A/Viet Nam/HN/2004(H5N1)).
The next experiment concerns the target HLA-A*02:16. The description is as above. The settings on record: source organism: Influenza A virus(A/swine/Shandong/fNY/2003(H9N2)).
Another experiment concerns the target HLA-A*02:06. Described as above. The settings on record: source organism: Influenza A virus(A/swine/Shandong/fNY/2003(H9N2)).
The next experiment concerns the target HLA-A*02:03. The experiment is described as above. The settings on record: source organism: Influenza A virus(A/swine/Shandong/fNY/2003(H9N2)).
For a further experiment, the target named is HLA-A*02:12. Described as above. The settings on record: source organism: Influenza A virus(A/swine/Shandong/fNY/2003(H9N2)).
Experiment [3] has as its target HLA-C*14:02. In words: IEDB peptide-MHC binding, purified MHC/competitive/fluorescence; filed as Kd, often an IC50 or EC50 that approximates it; ≥ and ≤ were set here for values at or beyond the usual limits of such assays. The settings on record: source organism: Yersinia pestis Nepal516.
The target of experiment [4] is HLA-B*58:01. The description is as above. Particulars: source organism: Yersinia pestis Nepal516.
The target of another experiment is HLA-A*68:23. Described as above. Particulars: source organism: Yersinia pestis Nepal516.
Setting [5] is: source organism: Yersinia pestis Antiqua.
Setting [6] is: source organism: Yersinia pestis.
Where [7] appears, read: source organism: Entamoeba histolytica HM-1:IMSS.
Where [8] appears, read: source organism: Vibrio vulnificus.
[9] abbreviates: source organism: Influenza A virus (A/Viet Nam/HN/2004(H5N1)).
Where [10] appears, read: source organism: Influenza A virus (A/Puerto Rico/8/34/Mount Sinai(H1N1)).
Setting [11] is: source organism: Escherichia coli O157:H7.
The mark [12] stands for this setting: source organism: Escherichia coli.
The mark [13] stands for this setting: source organism: Yersinia pestis Nepal516.

Bounds are passed on as bounds.

With FQLYSDLAH, the Kd is at least 20 µM with HLA-A*31:01 (setting [5]); at least 20 µM in the experiment with HLA-A*01:01 (setting [5]); 1.91 µM with HLA-A*02:01 (setting [6]); at least 20 µM with HLA-B*08:01 (setting [5]); 2.27 µM in the experiment with HLA-B*46:01 (setting [5]); at least 20 µM with HLA-A*69:01 (setting [5]). The Kd with HLA-A*03:01 (setting [5]) was at least 20 µM; with HLA-B*07:02 (setting [5]), at least 20 µM; with HLA-B*40:01 (setting [5]), at least 20 µM; with HLA-B*15:01 (setting [6]) it was 0.0682 µM; with HLA-B*15:02 (setting [5]) it was 0.0259 µM; with HLA-A*26:01 (setting [5]), at least 20 µM. In addition, the Kd in the experiment with HLA-A*11:01 (setting [5]) is at least 20 µM; with HLA-B*58:01 [1] (setting [5]) it was at least 20 µM; with HLA-B*44:02 (setting [5]) it was at least 20 µM; with HLA-B*35:01 (setting [6]) it was 0.861 µM.
In turn, KEFNGPAML gave a Kd with HLA-B*48:01 (setting [7]) of 0.439 µM. This counts as sub-micromolar.
With LLTQSNAGF, the Kd with HLA-A*31:01 (setting [8]), with HLA-A*01:01 (setting [8]), with HLA-B*08:01 (setting [8]), with HLA-B*46:01 (setting [8]), in the experiment with HLA-A*69:01 (setting [8]) and with HLA-A*03:01 (setting [8]) was at least 20 µM in each case. Moreover, the dissociation constant Kd with HLA-B*07:02 (setting [8]) is at least 20 µM; in the experiment with HLA-B*40:01 (setting [8]), at least 20 µM; in the experiment with HLA-B*27:05 (setting [8]) it was at least 20 µM; with HLA-B*15:01 (setting [8]) it was 0.146 µM; with HLA-B*15:02 (source organism: Vibrio vulnificus CMCP6), 0.049 µM; with HLA-A*26:01 (setting [8]) it was at least 20 µM. For the same sequence, the Kd with HLA-A*11:01 (setting [8]) was at least 20 µM; with HLA-B*44:02 (setting [8]), at least 20 µM; with HLA-B*35:01 (setting [8]) it was 0.345 µM.
In the case of RQQAIVDLL, the Kd with HLA-B*48:01 (source organism: Shigella flexneri 5 str. 8401) worked out at 0.153 µM. This lies in the sub-micromolar range.
Take SMFERDFHF: the dissociation constant (Kd) is at least 5 µM in the experiment with HLA-B*45:06 (setting [7]); 0.0028 µM with HLA-B*40:13 (setting [7]); 0.0316 µM with HLA-A*32:15 (setting [7]); at least 5 µM with HLA-B*15:42 (setting [7]); at least 5 µM in the experiment with HLA-B*83:01 (setting [7]); 0.0093 µM in the experiment with HLA-A*32:07 (setting [7]). Also, the Kd with HLA-A*02:01 (setting [7]) is 0.004 µM; with HLA-C*14:02 [2] it was 3.27 µM; with HLA-C*06:02, 1.72 µM; in the experiment with HLA-A*69:01 (setting [7]) it was at least 5 µM; with HLA-C*15:02 it was at least 20 µM.
In the case of VSPLAVTWW, the Kd is at least 20 µM in the experiment with HLA-A*01:01 (setting [9]); 1.08 µM in the experiment with HLA-A*02:01 (setting [10]); at least 20 µM in the experiment with HLA-B*08:01 (setting [9]); at least 20 µM with HLA-B*46:01 (setting [9]); 0.032 µM with HLA-A*02:11; at least 20 µM with HLA-A*69:01 (setting [9]). In addition, the Kd with HLA-A*02:19 was at least 20 µM; with HLA-A*03:01 (setting [10]), 0.173 µM; in the experiment with HLA-B*07:02 (setting [9]), at least 20 µM; in the experiment with HLA-A*24:02, at least 20 µM; with HLA-B*40:01 (setting [9]) it was at least 20 µM; with HLA-B*27:05 (setting [10]) it was 0.161 µM. Besides, the Kd with HLA-A*02:16 is 0.131 µM; with HLA-A*02:06, at least 20 µM; in the experiment with HLA-B*15:01 (setting [10]) it was 2.2 µM; with HLA-A*02:03, 0.029 µM; in the experiment with HLA-B*44:02 (setting [9]), at least 20 µM; in the experiment with HLA-A*02:12, 3.54 µM.
For YLGTPNNTY, the Kd with HLA-A*31:01 (setting [11]) is at least 20 µM; with HLA-A*01:01 (setting [12]), 0.284 µM; with HLA-A*02:01 (setting [11]), at least 20 µM; with HLA-B*08:01 (setting [11]) it was at least 20 µM; in the experiment with HLA-B*46:01 (setting [11]), at least 20 µM; with HLA-A*69:01 (setting [11]) it was at least 20 µM. For the same sequence, the Kd in the experiment with HLA-A*03:01 (setting [11]) was at least 20 µM; with HLA-B*07:02 (setting [11]), at least 20 µM; with HLA-B*40:01 (setting [11]), at least 20 µM; with HLA-B*27:05 (setting [11]) it was at least 20 µM; in the experiment with HLA-B*15:01 (setting [12]) it was 0.137 µM; with HLA-B*15:02 (setting [11]) it was 0.0094 µM. Further, the Kd with HLA-A*26:01 (setting [11]) was at least 20 µM; in the experiment with HLA-A*11:01 (setting [11]), at least 20 µM; in the experiment with HLA-B*58:01 [1] (setting [11]), at least 20 µM; with HLA-B*44:02 (setting [11]) it was at least 20 µM; with HLA-B*35:01 (setting [12]) it was 0.325 µM.
For YSLMSRYQF, the dissociation constant Kd with HLA-B*45:06 (setting [13]) is at least 5 µM; with HLA-C*14:02 [3], 0.043 µM; with HLA-B*40:13 (setting [13]), 0.0132 µM; with HLA-A*32:15 (setting [13]), 0.0582 µM; in the experiment with HLA-B*58:01 [4] it was 0.0162 µM; in the experiment with HLA-A*68:23, 0.0295 µM. The results for the Kd in the experiment with HLA-B*15:42 (setting [13]), in the experiment with HLA-B*83:01 (setting [13]) and with HLA-A*32:07 (setting [13]) were at least 5 µM, at least 5 µM and 0.0258 µM, respectively.

For the origin of these results see the Immune Epitope Database (IEDB).
